B1: Retinoblastoma-associated protein (Homo sapiens), P06400 (parent)
chain: MPPKTPRKTAATAAAAAAEPPAPPPPPPPEEDPEQDSGPEDLPLVRLEFEETEEPDFTALCQKLKIPDHVRERAWLTWEKVSSVDGVLGGYIQKKKELWGICIFIAAVDLDEMSFTFTELQKNIEISVHKFFNLLKEIDTSTKVDNAMSRLLKKYDVLFALFSKLERTCELIYLTQPSSSISTEINSALVLKVSWITFLLAKGEVLQMEDDLVISFQLMLCVLDYFIKLSPPMLLKEPYKTAVIPINGSPRTPRRGQNRSARIAKQLENDTRIIEVLCKEHECNIDEVKNVYFKNFIPFMNSLGLVTSNGLPEVENLSKRYEEIYLKNKDLDARLFLDHDKTLQTDSIDSFETQRTPRKSNLDEEVNVIPPHTPVRTVMNTIQQLMMILNSASDQPSENLISYFNNCTVNPKESILKRVKDIGYIFKEKFAKAVGQGCVEIGSQRYKLGVRLYYRVMESMLKSEEERLSIQNFSKLLNDNIFHMSLLACALEVVMATYSRSTSQNLDSGTDLSFPWILNVLNLKAFDFYKVIESFIKAEGNLTREMIKHLERCEHRIMESLAWLSDSPLFDLIKQSKDREGPTDHLESACPLNLPLQNNHTAADMYLSPVRSPKKKGSTTRVNSTANAETQATSAFQTQKPLKSTSLSLFYKKVYRLAYLRLNTLCERLLSEHPELEHIIWTLFQHTLQNEYELMRDRHLDQIMMCSMYGICKVKNIDLKFKIIVTAYKDLPHAVQETFKRVLIKEEEYDSIIVFYNSVFMQRLKTNILQYASTRPPTLSPIPHIPRSPYKFPSSPLRIPGGNIYISPLKSPYKISEGLPTPTKMTPRSRILVSIGESFGTSEKFQKINQMVCNSDRVLKRSAEGSNPPKPLKKLRFDIEGSDEADGSKHLPGESKFQQKLAEMTSTRTRMQKQKMNDSMDTSNKEEK

Legend:
[1] = variants of: B1; conditions: with e2f1_human E2F1, Q01094
[2] = variants of: B1; conditions: with ve7_hpv16 E7, P03129
[3] = variants of: B1; conditions: with ve7_hpv16 E7, P03129; remark: listed apart in the source
[4] = variants of: B1; conditions: with e2f1_human E2F1, Q01094; remark: listed apart in the source

Chain of ve7_hpv16 E7, P03129 (P03129 whole entry): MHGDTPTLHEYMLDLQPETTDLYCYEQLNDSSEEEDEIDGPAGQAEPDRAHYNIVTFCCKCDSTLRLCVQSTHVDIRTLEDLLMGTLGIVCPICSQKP
Chain of e2f1_human E2F1, Q01094 (Q01094 whole entry): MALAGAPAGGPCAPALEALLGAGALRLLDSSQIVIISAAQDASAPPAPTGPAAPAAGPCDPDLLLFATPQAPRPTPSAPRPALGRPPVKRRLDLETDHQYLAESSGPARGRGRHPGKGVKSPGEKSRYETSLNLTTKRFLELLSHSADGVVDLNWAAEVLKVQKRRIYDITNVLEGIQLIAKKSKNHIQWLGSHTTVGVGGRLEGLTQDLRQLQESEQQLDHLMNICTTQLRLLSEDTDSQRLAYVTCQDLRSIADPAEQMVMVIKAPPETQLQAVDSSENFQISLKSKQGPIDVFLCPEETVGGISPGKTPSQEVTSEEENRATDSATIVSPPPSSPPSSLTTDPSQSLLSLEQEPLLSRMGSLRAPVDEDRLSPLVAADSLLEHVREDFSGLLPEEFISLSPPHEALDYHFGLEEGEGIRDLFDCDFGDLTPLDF

| Variant | effect of a mutation on the interaction [1] | effect of a mutation on the interaction [2] | effect of a mutation on the interaction [3] | effect of a mutation on the interaction [4] |
| --- | --- | --- | --- | --- |
| R611S | decreasing interaction strength | with no effect | decreasing interaction strength |  |
| P595L | decreasing interaction strength | decreasing interaction strength |  |  |
| R668C | increasing interaction strength | increasing interaction strength | decreasing interaction strength | decreasing interaction strength |
| R668H | increasing interaction strength | decreasing interaction strength |  | with no effect |
| E693A | decreasing interaction strength | decreasing interaction strength |  |  |
| M704V | decreasing interaction strength | decreasing interaction strength |  | disrupting interaction strength |
| V654L | decreasing interaction strength | decreasing interaction strength |  |  |
| S648T | decreasing interaction strength | decreasing interaction strength |  |  |
| D604G | decreasing interaction strength | decreasing interaction strength |  |  |
| T664A | decreasing interaction strength | decreasing interaction strength |  |  |
| M695I | decreasing interaction strength | decreasing interaction strength |  | disrupting interaction strength |
| T620M | decreasing interaction strength | decreasing interaction strength |  |  |
| H686Y | decreasing interaction strength | with no effect | decreasing interaction strength |  |
| T687I | decreasing interaction strength | decreasing interaction strength |  |  |
| T738I | decreasing interaction strength | decreasing interaction strength | disrupting interaction strength | disrupting interaction strength |
| S612P | decreasing interaction strength | decreasing interaction strength |  |  |
| V754G | decreasing interaction strength | decreasing interaction strength |  |  |
| H673P | decreasing interaction strength | decreasing interaction strength |  | disrupting interaction strength |
| H673Y | decreasing interaction strength | decreasing interaction strength |  |  |
| R621S | decreasing interaction strength | decreasing interaction strength |  |  |
| R621H | decreasing interaction strength | decreasing interaction strength |  |  |
| R621P | decreasing interaction strength | decreasing interaction strength |  |  |

| Variant | effect of a mutation on the interaction [1] | effect of a mutation on the interaction [2] | effect of a mutation on the interaction [3] | effect of a mutation on the interaction [4] |
| --- | --- | --- | --- | --- |
| R621C |  | decreasing interaction strength |  | decreasing interaction strength |
| D697E | decreasing interaction strength | decreasing interaction strength |  | disrupting interaction strength |
| D584Y | decreasing interaction strength | decreasing interaction strength |  |  |
| H699P | decreasing interaction strength | decreasing interaction strength |  |  |
| T638S | with no effect | decreasing interaction strength |  | decreasing interaction strength |
| R763T | decreasing interaction strength | decreasing interaction strength |  |  |
| S751Y | decreasing interaction strength | disrupting interaction strength |  | disrupting interaction strength |
| S751C | decreasing interaction strength | decreasing interaction strength |  | disrupting interaction strength |
| S588F | decreasing interaction strength | with no effect | decreasing interaction strength |  |
| R741H | decreasing interaction strength | decreasing interaction strength |  |  |
| R741C | decreasing interaction strength | decreasing interaction strength |  |  |
| R741S | decreasing interaction strength | decreasing interaction strength |  |  |
| E675Q | decreasing interaction strength | decreasing interaction strength |  |  |
| Y606C | decreasing interaction strength | decreasing interaction strength |  |  |
| I679F | decreasing interaction strength | decreasing interaction strength |  |  |
| H585Y | decreasing interaction strength | decreasing interaction strength |  |  |
| I703V | decreasing interaction strength | decreasing interaction strength |  | disrupting interaction strength |
| I703F | decreasing interaction strength | decreasing interaction strength | disrupting interaction strength | disrupting interaction strength |
| R656Q | disrupting interaction strength | decreasing interaction strength |  |  |
| R656W | decreasing interaction strength | decreasing interaction strength |  |  |
| M761L | decreasing interaction strength | increasing interaction strength |  |  |
| S671F | decreasing interaction strength | decreasing interaction strength |  |  |

Reference: IntAct's records for PubMed 39938803
